Laboratory results published in patent publication US20140072613A1, “Compositions and Methods for Treating Cutaneous Scarring” (priority 2012, published 2014).

Columns and labels:
Test in all cases: biochemical
Assay type in all cases: biochemical
266 human kinases [1] = molecular target: T1, 266 human kinases (Homo sapiens, UniProt Q99683); settings: ASK1(h); 100 μM
T1 sequence (Q99683 1-1374): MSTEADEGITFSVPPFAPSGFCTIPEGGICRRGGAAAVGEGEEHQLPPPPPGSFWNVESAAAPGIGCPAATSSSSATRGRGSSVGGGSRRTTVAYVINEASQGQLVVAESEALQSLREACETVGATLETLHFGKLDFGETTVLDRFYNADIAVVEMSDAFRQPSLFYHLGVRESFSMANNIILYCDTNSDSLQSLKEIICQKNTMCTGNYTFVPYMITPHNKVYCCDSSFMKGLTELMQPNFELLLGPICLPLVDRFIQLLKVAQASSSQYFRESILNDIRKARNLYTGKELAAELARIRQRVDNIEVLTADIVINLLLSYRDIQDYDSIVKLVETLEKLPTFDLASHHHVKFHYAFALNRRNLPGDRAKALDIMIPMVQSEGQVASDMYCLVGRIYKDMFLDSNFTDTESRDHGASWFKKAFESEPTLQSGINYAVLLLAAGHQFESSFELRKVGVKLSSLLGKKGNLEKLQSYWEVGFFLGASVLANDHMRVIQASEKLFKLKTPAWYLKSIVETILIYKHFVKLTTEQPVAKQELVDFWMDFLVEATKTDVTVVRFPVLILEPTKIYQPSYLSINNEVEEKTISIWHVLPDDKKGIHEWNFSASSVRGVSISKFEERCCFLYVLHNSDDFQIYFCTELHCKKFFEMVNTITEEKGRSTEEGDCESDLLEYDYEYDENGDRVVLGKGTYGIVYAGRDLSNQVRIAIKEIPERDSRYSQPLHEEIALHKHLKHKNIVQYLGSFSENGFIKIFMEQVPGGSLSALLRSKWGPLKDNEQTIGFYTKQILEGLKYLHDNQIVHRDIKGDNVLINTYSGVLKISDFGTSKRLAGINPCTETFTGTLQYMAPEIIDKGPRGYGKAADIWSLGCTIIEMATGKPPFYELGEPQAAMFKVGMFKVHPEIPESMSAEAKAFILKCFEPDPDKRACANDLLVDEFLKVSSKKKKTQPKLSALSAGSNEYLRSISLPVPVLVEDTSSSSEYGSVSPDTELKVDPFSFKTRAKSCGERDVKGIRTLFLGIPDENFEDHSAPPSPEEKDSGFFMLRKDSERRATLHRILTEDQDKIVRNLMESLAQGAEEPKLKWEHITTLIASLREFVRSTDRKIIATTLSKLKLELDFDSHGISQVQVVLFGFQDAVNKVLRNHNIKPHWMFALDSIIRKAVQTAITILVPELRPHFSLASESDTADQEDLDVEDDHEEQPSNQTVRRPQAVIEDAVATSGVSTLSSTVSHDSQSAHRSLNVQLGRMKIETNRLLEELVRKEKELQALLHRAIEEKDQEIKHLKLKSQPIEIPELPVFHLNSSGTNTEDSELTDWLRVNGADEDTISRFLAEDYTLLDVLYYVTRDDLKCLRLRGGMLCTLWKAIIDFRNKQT
How it was run: (§1)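 Kinase phosphorylates cationic substrate with radiolabelled ATP phosphate; substrate retained on anionic filter membrane; scintillation count; % of 100% activity control.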

266 human kinases [2] = molecular target: 266 human kinases (Homo sapiens, UniProt O60674); settings: JAK2(h); 100 μM
266 human kinases (Homo sapiens, UniProt O60674), sequence (O60674 whole entry): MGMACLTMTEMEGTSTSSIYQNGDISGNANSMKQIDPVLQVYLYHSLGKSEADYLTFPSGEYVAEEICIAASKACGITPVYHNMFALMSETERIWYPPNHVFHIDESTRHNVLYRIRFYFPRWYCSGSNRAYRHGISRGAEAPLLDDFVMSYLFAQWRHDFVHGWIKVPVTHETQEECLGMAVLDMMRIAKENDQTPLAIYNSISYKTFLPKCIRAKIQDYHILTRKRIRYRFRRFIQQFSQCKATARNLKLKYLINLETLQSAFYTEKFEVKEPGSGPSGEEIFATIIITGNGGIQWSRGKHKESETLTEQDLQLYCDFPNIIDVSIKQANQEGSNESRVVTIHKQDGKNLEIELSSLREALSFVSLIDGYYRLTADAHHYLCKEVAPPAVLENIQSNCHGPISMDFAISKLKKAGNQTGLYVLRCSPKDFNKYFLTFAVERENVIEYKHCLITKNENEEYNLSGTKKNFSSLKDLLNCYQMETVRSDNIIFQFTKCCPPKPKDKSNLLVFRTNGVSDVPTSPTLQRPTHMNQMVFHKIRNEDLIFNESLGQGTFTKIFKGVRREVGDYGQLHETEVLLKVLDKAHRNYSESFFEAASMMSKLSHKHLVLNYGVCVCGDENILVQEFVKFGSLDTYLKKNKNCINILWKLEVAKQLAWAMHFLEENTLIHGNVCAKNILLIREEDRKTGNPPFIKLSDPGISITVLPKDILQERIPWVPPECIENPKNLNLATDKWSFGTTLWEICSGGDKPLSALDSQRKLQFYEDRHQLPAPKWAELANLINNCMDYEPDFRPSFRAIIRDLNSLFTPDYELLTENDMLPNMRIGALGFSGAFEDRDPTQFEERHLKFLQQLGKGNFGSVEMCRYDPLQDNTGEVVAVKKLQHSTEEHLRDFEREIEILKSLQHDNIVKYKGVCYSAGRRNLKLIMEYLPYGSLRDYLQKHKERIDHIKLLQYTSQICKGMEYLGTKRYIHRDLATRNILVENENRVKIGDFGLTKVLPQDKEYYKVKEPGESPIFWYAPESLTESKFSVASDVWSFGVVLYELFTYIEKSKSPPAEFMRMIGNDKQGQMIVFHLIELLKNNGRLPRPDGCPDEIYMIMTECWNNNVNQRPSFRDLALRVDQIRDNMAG
How it was run: as §1

266 human kinases [3] = molecular target: 266 human kinases (Homo sapiens, UniProt Q86UE8); settings: TLK2(h); 100 μM
266 human kinases (Homo sapiens, UniProt Q86UE8), sequence (Q86UE8 whole entry): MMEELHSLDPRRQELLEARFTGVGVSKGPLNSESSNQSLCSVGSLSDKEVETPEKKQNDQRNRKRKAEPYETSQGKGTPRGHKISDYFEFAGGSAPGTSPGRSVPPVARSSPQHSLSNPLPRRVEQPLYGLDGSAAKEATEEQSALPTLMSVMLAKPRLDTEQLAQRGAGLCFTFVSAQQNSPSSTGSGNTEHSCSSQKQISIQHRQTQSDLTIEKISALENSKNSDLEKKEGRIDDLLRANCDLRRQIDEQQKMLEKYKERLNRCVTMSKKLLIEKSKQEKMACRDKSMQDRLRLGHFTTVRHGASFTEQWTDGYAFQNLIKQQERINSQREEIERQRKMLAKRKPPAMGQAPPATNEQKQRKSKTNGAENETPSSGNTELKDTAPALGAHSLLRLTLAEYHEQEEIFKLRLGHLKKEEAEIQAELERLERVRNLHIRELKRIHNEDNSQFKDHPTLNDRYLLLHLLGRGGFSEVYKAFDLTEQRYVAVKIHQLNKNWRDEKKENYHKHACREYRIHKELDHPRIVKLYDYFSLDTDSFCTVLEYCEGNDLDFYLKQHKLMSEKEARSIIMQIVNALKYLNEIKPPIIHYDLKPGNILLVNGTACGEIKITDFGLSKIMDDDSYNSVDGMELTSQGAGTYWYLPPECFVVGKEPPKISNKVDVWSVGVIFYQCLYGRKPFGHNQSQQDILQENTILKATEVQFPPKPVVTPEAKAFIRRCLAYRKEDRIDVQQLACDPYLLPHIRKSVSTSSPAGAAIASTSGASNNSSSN
How it was run: as §1

266 human kinases [4] = molecular target: 266 human kinases (Homo sapiens, UniProt P51955); settings: NEK2(h); 100 μM
266 human kinases (Homo sapiens, UniProt P51955), sequence (P51955 whole entry): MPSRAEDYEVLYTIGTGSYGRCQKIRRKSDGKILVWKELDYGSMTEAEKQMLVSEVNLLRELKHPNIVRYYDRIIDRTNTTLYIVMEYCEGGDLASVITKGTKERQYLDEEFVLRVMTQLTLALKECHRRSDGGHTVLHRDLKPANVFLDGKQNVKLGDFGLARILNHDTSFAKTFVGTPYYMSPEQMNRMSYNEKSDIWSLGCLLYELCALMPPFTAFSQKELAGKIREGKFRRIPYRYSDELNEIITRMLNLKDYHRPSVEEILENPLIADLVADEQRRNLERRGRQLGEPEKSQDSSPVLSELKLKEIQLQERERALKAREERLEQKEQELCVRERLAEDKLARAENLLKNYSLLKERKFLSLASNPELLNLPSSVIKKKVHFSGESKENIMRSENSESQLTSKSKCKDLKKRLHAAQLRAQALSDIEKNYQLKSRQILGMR
How it was run: as §1

266 human kinases [5] = molecular target: 266 human kinases (Homo sapiens, UniProt O96017, R145W); settings: CHK2(R145W)(h); 100 μM
266 human kinases (Homo sapiens, UniProt O96017, R145W), sequence (O96017 whole entry R145W): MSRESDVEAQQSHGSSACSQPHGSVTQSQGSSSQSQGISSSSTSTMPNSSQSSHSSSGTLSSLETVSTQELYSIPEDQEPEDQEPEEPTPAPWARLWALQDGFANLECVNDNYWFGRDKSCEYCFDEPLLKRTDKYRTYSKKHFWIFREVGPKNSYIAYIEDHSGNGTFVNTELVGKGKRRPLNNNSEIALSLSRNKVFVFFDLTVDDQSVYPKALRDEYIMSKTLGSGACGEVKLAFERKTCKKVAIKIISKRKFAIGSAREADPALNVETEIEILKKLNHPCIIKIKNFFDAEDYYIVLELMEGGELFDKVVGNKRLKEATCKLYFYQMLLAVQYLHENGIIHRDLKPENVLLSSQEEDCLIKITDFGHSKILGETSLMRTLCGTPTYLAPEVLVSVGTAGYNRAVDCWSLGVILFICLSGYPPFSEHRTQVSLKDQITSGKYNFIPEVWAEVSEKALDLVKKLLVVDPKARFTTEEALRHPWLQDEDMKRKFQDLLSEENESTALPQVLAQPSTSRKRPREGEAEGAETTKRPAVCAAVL
How it was run: as §1

266 human kinases [6] = molecular target: T2, 266 human kinases (Homo sapiens, UniProt P51956); settings: NEK3(h); 100 μM
T2 sequence (P51956 1-506): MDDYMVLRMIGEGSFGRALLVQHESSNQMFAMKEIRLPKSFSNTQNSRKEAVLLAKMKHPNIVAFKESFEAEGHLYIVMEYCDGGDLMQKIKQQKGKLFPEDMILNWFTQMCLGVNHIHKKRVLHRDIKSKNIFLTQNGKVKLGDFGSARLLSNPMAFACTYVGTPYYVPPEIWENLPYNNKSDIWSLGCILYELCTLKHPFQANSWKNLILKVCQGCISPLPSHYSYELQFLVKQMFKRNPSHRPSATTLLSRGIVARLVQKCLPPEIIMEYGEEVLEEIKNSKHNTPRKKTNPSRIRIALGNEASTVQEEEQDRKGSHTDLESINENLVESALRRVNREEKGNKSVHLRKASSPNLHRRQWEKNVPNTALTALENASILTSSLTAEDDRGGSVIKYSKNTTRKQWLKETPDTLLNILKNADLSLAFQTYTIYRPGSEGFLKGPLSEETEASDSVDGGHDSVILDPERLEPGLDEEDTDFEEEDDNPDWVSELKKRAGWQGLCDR
How it was run: as §1

266 human kinases [7] = molecular target: 266 human kinases (Homo sapiens, UniProt Q7KZI7); settings: PAR-1Bα(h); 100 μM
266 human kinases (Homo sapiens, UniProt Q7KZI7), sequence (Q7KZI7 whole entry): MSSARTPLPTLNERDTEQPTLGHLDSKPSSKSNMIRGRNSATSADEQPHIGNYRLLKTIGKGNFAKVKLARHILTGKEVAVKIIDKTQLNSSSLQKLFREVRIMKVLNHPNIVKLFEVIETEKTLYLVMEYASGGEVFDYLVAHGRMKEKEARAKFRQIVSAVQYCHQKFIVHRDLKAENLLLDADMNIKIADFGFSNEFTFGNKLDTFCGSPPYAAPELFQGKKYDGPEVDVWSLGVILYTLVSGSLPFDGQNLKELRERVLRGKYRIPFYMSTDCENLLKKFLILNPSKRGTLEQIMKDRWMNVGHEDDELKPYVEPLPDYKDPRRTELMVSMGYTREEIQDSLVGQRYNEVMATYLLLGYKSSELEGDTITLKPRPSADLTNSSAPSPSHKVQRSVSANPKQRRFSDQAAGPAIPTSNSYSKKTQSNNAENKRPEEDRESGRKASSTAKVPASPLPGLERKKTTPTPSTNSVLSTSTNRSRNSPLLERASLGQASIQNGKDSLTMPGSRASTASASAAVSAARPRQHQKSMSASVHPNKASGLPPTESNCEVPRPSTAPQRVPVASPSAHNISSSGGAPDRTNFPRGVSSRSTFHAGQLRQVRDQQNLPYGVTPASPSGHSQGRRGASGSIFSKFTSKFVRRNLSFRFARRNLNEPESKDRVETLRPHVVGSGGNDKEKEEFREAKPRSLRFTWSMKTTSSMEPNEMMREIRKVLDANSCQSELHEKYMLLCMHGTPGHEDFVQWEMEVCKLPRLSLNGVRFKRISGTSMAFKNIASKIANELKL
How it was run: as §1

266 human kinases [8] = molecular target: 266 human kinases (Homo sapiens, UniProt Q02763); settings: Tie2(h); 100 μM
How it was run: as §1

266 human kinases [9] = molecular target: 266 human kinases (Homo sapiens, UniProt P23443); settings: p70S6K(h); 100 μM
266 human kinases (Homo sapiens, UniProt P23443), sequence (P23443 whole entry): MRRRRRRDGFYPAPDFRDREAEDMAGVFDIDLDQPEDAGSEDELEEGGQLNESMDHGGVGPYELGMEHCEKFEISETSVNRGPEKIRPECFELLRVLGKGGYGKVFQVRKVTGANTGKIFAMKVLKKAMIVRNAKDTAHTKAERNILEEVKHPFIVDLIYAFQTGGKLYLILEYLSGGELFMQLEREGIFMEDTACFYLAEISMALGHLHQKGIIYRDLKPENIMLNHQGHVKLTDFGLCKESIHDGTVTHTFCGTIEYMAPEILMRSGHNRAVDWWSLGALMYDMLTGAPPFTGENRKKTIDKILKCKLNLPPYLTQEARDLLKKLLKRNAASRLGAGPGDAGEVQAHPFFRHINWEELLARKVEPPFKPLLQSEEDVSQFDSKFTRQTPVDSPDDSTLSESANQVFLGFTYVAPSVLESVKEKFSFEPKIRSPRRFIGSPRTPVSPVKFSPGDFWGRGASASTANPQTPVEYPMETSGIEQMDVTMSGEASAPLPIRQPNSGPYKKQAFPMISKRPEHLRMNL
How it was run: as §1

| Sequence | % activity (266 human kinases [1]) [%] | % activity (266 human kinases [2]) [%] | % activity (266 human kinases [3]) [%] | % activity (266 human kinases [4]) [%] | % activity (266 human kinases [5]) [%] | % activity (266 human kinases [6]) [%] | % activity (266 human kinases [7]) [%] | % activity (266 human kinases [8]) [%] | % activity (266 human kinases [9]) [%] |
| --- | --- | --- | --- | --- | --- | --- | --- | --- | --- |
| HRRIKAWLKKIKALARQLGVAA (mammal) [MMI-0500] | −4 | 49 | 133 | 0 | 3 | 20 | 97 | 22 | 3 |
| YARAAARQARAKALNRQLGVA (mammal) [MMI-0200] | 101 | 131 | 129 | 97 | 81 | 100 | 110 | 53 | 84 |
